{
  "source": "paper PMC7615550",
  "about": "“Structural mechanism of outer kinetochore Dam1:Ndc80 complex assembly on microtubules” (Science (New York, N.Y.), 2023)",
  "molecules": {"B1": {"name": "Spc34 subunit of the Dam1 complex (natural protein, S. cerevisiae)", "chain": "MGESLDRCIDDINRAVDSMSTLYFKPPGIFHNAILQGASNKASIRKDITRLIKDCNHDEAYLLFKVNPEKQSVSRRDGKEGVFDYVIKRDTDMKRNRRLGRPGEKPIIHVPKEVYLNKDRLDLNNKRRRTATTSGGGLNGFIFDTDLIGSSVISNSSSGTFKALSAVFKDDPQIQRLLYALENGSVLMEEESNNQRRKTIFVEDFPTDLILKVMAEVTDLWPLTEFKQDYDQLYHNYEQLSSKLRFIKKEVLLQDDRLKTMSQYHPSSSHDVAKIIRKEKDEIRRLEMEIANLQE", "notes": "Spc34, S. cerevisiae, as a subunit of the reconstituted Dam1 complex; Stood in the assay inside the whole Dam1c; source: purified as part of Dam1c"}, "B2": {"name": "Ask1 subunit of the Dam1 complex (natural protein, S. cerevisiae)", "chain": "MDSASKEETLEKLDQEITVNLQKIDSNLSFCFHKITQDIIPHVATYSEICERIMDSTEWLGTMFQETGLVNLQANAAAPVGNAPVKSLVSNNVGIFPTSAEEASRQSQTDNGPNEADSAVHVNRDVHSMFNNDSIDDFHTANITSTGQILKLPDSSDEDTGSEAVPSREQTDLTGEGHGGADDEQDESTIQRQSRKRKISLLLQQQYGSSSSMVPSPIVPNKMRKQLAHEEHINNDGDNDDENSNNIESSPLKQGHHHPKGQADDNNEGPDEEESTKEVPKPGTIIHFSTNR", "notes": "Ask1, S. cerevisiae, as a subunit of the reconstituted Dam1 complex; Stood in the assay inside the whole Dam1c; also called Ask1^B; source: purified as part of Dam1c"}, "B3": {"name": "Spc19 subunit of the Dam1 complex (natural protein, S. cerevisiae)", "chain": "MTDALEQSVLALEGTVSVLKDSVESLKCANEPSTNLASTMLQTKRVFRLVPEYDVERSKLDLIEEVEPLVRTLGDKLRKSMGRMQRELDTLQQTYELNDLRLKKNISMDDDDALNSPDMGQEYEGRDADDVVMMASSTNEELEELKKLKEKKKQLENKLEILKQK", "notes": "Spc19, S. cerevisiae, as a subunit of the reconstituted Dam1 complex; Stood in the assay inside the whole Dam1c; source: purified as part of Dam1c"}, "B4": {"name": "Dad4 subunit of the Dam1 complex (natural protein, S. cerevisiae)", "chain": "MENPHEQVQANILSRIIGNVKRLNESVAILNQELVTINNRNKNLEIMGAICDNYHSSVQFNLEATNNKKPPL", "notes": "Dad4, S. cerevisiae, as a subunit of the reconstituted Dam1 complex; Stood in the assay inside the whole Dam1c; also called Dad4^B; source: purified as part of Dam1c"}, "B5": {"name": "Dad1 subunit of the Dam1 complex (natural protein, S. cerevisiae)", "chain": "MMASTSNDEEKLISTTDKYFIEQRNIVLQEINETMNSILNGLNGLNISLESSIAVGREFQSVSDLWKTLYDGLESLSDEAPIDEQPTLSQSKTK", "notes": "Dad1, S. cerevisiae, as a subunit of the reconstituted Dam1 complex; Stood in the assay inside the whole Dam1c; also called Dad1^A; source: purified as part of Dam1c"}, "B6": {"name": "Dam1 subunit of the Dam1 complex (natural protein, S. cerevisiae)", "chain": "MSEDKAKLGTTRSATEYRLSIGSAPTSRRSSMGESSSLMKFADQEGLTSSVGEYNENTIQQLLLPKIRELSDSIITLDSNFTRLNFIHESLADLNESLGSLLYGIMSNSWCVEFSQAPHDIQDDLIAIKQLKSLEDEKNNLVMELSNMERGIKRKKDEQGENDLAKASQNKQFNQPLFPSSQVRKYRSYDNRDKRKPSKIGNNLQVENEEDYEDDTSSEASFVLNPTNIGMSKSSQGHVTKTTRLNNNTNSKLRRKSILHTIRNSIASGADLPIENDNVVNLGDLHPNNRISLGSGAARVVNGPVTKNRNSMFSGRAERKPTESRHSVAKKTEKKINTRPPFR", "notes": "Dam1, S. cerevisiae, as a subunit of the reconstituted Dam1 complex; Stood in the assay inside the whole Dam1c; also called Dam1^Staple (residues 1-26); Dam1^C-ter; source: purified as part of Dam1c"}},
  "key": {"[1]": {"target": "Ndc80 complex (heterotetramer of Ndc80, Nuf2, Spc24 and Spc25, S. cerevisiae), wild type (S. cerevisiae) (UniProt P40460)", "sequence (P40460 whole entry, chain 1 of 4)": "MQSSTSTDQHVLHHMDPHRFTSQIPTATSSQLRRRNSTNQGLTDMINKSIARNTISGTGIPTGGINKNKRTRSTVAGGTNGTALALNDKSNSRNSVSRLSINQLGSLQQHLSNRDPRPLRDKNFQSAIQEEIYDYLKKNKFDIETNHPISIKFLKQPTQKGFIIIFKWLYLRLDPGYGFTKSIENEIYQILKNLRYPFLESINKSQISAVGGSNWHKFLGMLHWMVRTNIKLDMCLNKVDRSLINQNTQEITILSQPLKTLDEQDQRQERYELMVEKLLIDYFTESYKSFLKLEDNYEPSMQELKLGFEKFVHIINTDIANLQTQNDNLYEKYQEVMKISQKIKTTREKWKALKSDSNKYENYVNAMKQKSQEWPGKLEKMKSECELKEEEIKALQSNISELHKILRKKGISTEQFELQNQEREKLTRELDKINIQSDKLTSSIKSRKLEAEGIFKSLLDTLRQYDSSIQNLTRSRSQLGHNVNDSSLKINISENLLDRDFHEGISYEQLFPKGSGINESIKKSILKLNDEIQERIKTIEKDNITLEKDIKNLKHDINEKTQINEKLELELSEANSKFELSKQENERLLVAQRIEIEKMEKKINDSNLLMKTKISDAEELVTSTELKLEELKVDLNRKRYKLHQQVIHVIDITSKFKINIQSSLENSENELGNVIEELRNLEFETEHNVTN", "sequence (P33895 whole entry, chain 2 of 4, further chain)": "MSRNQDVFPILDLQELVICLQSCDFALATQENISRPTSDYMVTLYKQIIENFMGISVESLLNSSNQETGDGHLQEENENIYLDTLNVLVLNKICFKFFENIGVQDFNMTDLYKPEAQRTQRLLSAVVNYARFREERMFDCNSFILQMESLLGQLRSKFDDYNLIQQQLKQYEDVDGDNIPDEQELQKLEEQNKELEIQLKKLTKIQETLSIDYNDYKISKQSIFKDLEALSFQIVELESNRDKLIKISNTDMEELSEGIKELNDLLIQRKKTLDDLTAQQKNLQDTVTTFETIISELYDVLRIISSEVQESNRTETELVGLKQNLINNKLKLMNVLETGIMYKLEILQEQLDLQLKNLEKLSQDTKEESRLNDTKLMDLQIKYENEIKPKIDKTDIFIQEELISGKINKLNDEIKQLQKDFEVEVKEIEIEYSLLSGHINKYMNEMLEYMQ", "sequence (Q04477 whole entry, chain 3 of 4, further chain)": "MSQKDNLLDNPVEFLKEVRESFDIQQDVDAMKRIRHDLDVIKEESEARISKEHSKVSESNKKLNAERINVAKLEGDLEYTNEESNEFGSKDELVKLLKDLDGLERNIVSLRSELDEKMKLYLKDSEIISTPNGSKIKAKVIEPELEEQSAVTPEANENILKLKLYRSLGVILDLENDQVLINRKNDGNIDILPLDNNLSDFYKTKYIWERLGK", "sequence (P40014 whole entry, chain 4 of 4, further chain)": "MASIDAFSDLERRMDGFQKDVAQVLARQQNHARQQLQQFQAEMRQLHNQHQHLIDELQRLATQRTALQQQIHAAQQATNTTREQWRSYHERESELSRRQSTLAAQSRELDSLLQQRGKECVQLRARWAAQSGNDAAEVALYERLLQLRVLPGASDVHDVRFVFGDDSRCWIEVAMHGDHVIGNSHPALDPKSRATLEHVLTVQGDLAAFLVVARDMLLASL"}, "[2]": {"target": "Dam1 complex (ten-subunit, S. cerevisiae), wild type, P53267;Q12248;P35734;P69851;P36131;Q03954", "experiment": "optical trap force-rupture assay", "conditions": "Ndc80c + Dam1c on microtubules; N=154 (parent N=150); parent: 10.4"}, "[3]": {"target": "microtubules (α/β-tubulin) (UniProt P02554)", "experiment": "optical trap force-rupture assay", "conditions": "Ndc80c alone (no Dam1c) on microtubules; N=81 (parent N=119); parent: 5.4"}, "[4]": {"target": "Dam1 complex (ten-subunit, S. cerevisiae), wild type (S. cerevisiae) (UniProt P53267)", "experiment": "cryo-EM structure; outer kinetochore Dam1c:Ndc80c:microtubule complexes assembled on cryo-EM grids by step-wise addition of taxol-stabilized microtubules, Ndc80c, and Dam1c"}, "[5]": {"target": "microtubules (α/β-tubulin) (UniProt P02554)", "experiment": "optical trap force-rupture assay; rupture of outer kinetochore - microtubule attachments; each event is the maximum trap force before rupturing; medians; Ndc80c alone"}, "[6]": {"target": "T1, Ndc80 complex (heterotetramer of Ndc80, Nuf2, Spc24 and Spc25, S. cerevisiae), wild type (S. cerevisiae, UniProt P40460 1-691; P33895 1-451; Q04477 1-213; P40014 1-221)", "T1 construct": "Ndc80 subunit of the S. cerevisiae Ndc80 complex; Nuf2 subunit of the S. cerevisiae Ndc80 complex; Spc24 subunit of the S. cerevisiae Ndc80 complex (no cryo-EM density visible); Spc25 subunit of the S. cerevisiae Ndc80 complex (no cryo-EM density visible); also called Ndc80c^CH; Ndc80^CC:Nuf2^CC; source: purified; copies: + + +", "T1 sequence (P40460 whole entry, chain 1 of 4)": "as the sequence (P40460 whole entry, chain 1 of 4) above", "T1 sequence (P33895 whole entry, chain 2 of 4)": "as the sequence (P33895 whole entry, chain 2 of 4, further chain) above", "T1 sequence (Q04477 whole entry, chain 3 of 4)": "as the sequence (Q04477 whole entry, chain 3 of 4, further chain) above", "T1 sequence (P40014 whole entry, chain 4 of 4)": "as the sequence (P40014 whole entry, chain 4 of 4, further chain) above", "experiment": "cryo-EM structure; outer kinetochore Dam1c:Ndc80c:microtubule complexes assembled on cryo-EM grids by step-wise addition of taxol-stabilized microtubules, Ndc80c, and Dam1c", "conditions": "both partners purified"}, "[7]": {"target": "B6", "experiment": "cryo-EM structure; outer kinetochore Dam1c:Ndc80c:microtubule complexes assembled on cryo-EM grids by step-wise addition of taxol-stabilized microtubules, Ndc80c, and Dam1c", "conditions": "both partners purified"}, "[8]": {"target": "T2, Ndc80 subunit of the Ndc80 complex (S. cerevisiae, UniProt P40460 1-691)", "T2 construct": "Ndc80, S. cerevisiae, as a subunit of the reconstituted Ndc80 complex; Stood in the assay inside the whole Ndc80c; also called Ndc80^CH; Ndc80^CC; source: purified as part of Ndc80c", "T2 sequence (P40460 whole entry, one chain of several)": "as the sequence (P40460 whole entry, chain 1 of 4) above", "experiment": "cryo-EM structure; outer kinetochore Dam1c:Ndc80c:microtubule complexes assembled on cryo-EM grids by step-wise addition of taxol-stabilized microtubules, Ndc80c, and Dam1c", "conditions": "both partners purified"}, "[9]": {"target": "B1", "experiment": "cryo-EM structure; outer kinetochore Dam1c:Ndc80c:microtubule complexes assembled on cryo-EM grids by step-wise addition of taxol-stabilized microtubules, Ndc80c, and Dam1c", "conditions": "both partners purified"}},
  "data": [
    {"molecule": "Dam1 complex with the Dam1 C-terminal mutant (I258/L259/I262 mutated) (from UniProt P53267 1-343; Q12248 1-94; P35734 1-292; P69851 1-72; P36131 1-295; Q03954 1-165)", "values": [
      {"measurement": "median rupture force of Ndc80c - microtubule attachments in the presence of the Dam1 C-ter mutant Dam1c (optical trap force-rupture assay)", "setting": "[1]", "result": 5.5, "unit": "pN"}
    ]},
    {"molecule": "Ndc80 complex (heterotetramer of Ndc80, Nuf2, Spc24 and Spc25, S. cerevisiae), wild type (from UniProt P40460;P33895;Q04477;P40014) E568R; V590W; L594E; E597R", "values": [
      {"measurement": "other: median rupture force", "setting": "[2]", "result": 8.9, "unit": "pN"},
      {"measurement": "other: median rupture force", "setting": "[3]", "result": 4.5, "unit": "pN"}
    ]},
    {"molecule": "Dam1 complex (ten-subunit, S. cerevisiae), wild type (from UniProt P53267 1-343; Q12248 1-94; P35734 1-292; P69851 1-72; P36131 1-295; Q03954 1-165)", "values": [
      {"measurement": "median rupture force of Ndc80c - microtubule attachments in the presence of Dam1c (optical trap force-rupture assay)", "setting": "[1]", "result": 10.4, "unit": "pN"},
      {"measurement": "stoichiometry N", "setting": "[4]", "result": 16}
    ]},
    {"molecule": "Ndc80 complex (heterotetramer of Ndc80, Nuf2, Spc24 and Spc25, S. cerevisiae), wild type (from UniProt P40460 1-691; P33895 1-451; Q04477 1-213; P40014 1-221)", "values": [
      {"measurement": "median rupture force", "setting": "[5]", "result": 5.4, "unit": "pN"}
    ]},
    {"molecule": "B1", "values": [
      {"measurement": "binding result", "setting": "[6]", "result": "binds"}
    ]},
    {"molecule": "B2", "values": [
      {"measurement": "binding result", "setting": "[7]", "result": "binds"}
    ]},
    {"molecule": "B3", "values": [
      {"measurement": "binding result", "setting": "[8]", "result": "binds"},
      {"measurement": "binding result", "setting": "[9]", "result": "binds"}
    ]},
    {"molecule": "B4", "values": [
      {"measurement": "binding result", "setting": "[7]", "result": "binds"}
    ]},
    {"molecule": "B5", "values": [
      {"measurement": "binding result", "setting": "[7]", "result": "binds"}
    ]},
    {"molecule": "B6", "values": [
      {"measurement": "binding result", "setting": "[6]", "result": "binds"}
    ]}
  ]
}
